Measured values taken from article PMC9975281, “Enolpyruvate transferase MurAA^A149E, identified during adaptation of Enterococcus faecium to daptomycin, increases stability of MurAA–MurG interaction” (The Journal of Biological Chemistry, 2023).

How the values were obtained:
[1] = biological target: T1, MurAA^A149E (Enterococcus faecium, UniProt A0A133CTP6, A149E); test: microscale thermophoresis in the presence of UDP-GlcNAc; assay type: binding
T1 construct: gene murA; full-length

[2] = biological target: T2, MurAA (Enterococcus faecium, UniProt A0A133CTP6); test: ([…] Å); MST in the presence of UDP-GlcNAc; assay type: binding
T2 construct: gene murA; full-length

[3] = biological target: T2, MurAA; test: X-ray crystal structure ([…] Å), co-purified ligand, weak/partial density; assay type: binding
[4] = biological target: Enterococcus faecium MurG (Enterococcus faecium) (UniProt Q3Y2H8); test: MST; 50 nM His-MurG labelled with RED-tris-NTA, serial dilution of MurAA^WT (402 uM to 12.3 nM) or MurAA^A149E (69.9 uM to 2.13 nM); 20 mM Hepes pH 7.5, 150 mM NaCl, 0.05% Tween; Monolith NT.115; triplicate
[5] = system: C=C(OP(=O)(O)O)C(=O)O; test: purified protein; settings: covalently bound within the active site at Cys119
[6] = system: C=C(OP(=O)(O)O)C(=O)O; test: steady-state kinetics (Km), EnzChek phosphate assay; assay type: biochemical, Enterococcus faecium

C[C@@H]1O[C@@H]1P(=O)(O)O [FOS, fosfomycin]
Kd [1]: 470 ± 60 nM | Kd [2]: 1870 ± 670 nM

CC(=O)N[C@H]1[C@@H](OP(=O)(O)OP(=O)(O)OC[C@H]2O[C@@H](n3ccc(=O)[nH]c3=O)[C@H](O)[C@@H]2O)O[C@H](CO)[C@@H](O)[C@@H]1O[C@H](C)C(=O)O [UDP-MurNAc]
X-ray crystal structure (2.65 Å), co-purified ligand, weak/partial density [3]: Cys119-PEP adduct and UDP–MurNAc at the interface of two domains in E. faecium MurAA

Enterococcus faecium MurAA, wildtype (UDP-N-acetylglucosamine enolpyruvate transferase) (enzyme)
Kd [4]: 27700 nM

Enterococcus faecium MurAA^A149E (enzyme)
Kd [4]: 1720 nM

MurAA (Enterococcus faecium)
Km [5]: 6.35 ± 0.88 µM | kcat [5]: 1.81 ± 0.06 s⁻¹

MurAA^A149E (Enterococcus faecium; A149E)
Km [6]: 7.26 ± 1.05 µM | kcat [6]: 1.04 ± 0.04 s⁻¹
